Measurements from the supplement of paper PMC9112550, “Optimization of the antimicrobial peptide Bac7 by deep mutational scanning” (BMC Biology, 2022).

test system: Escherichia coli TOP10; experiment: shrunken log2 fold change of peptide-encoding DNA abundance (4.5 h post-induction vs induction); higher = less antimicrobial activity (less host growth inhibition); details: time post-induction: 4.5 h; library: site-saturation at positions 5, 18, 19, 20
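Also: peptides expressed intracellularly from a pBAD plasmid library in pooled LB shake-flask culture, induced with 0.3% L-arabinose, DNA abundance read by NGS, three biological replicates, DESeq2 with apeglm shrinkage.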

| Sequence | shrunken log2 fold change |
| --- | --- |
| RRIRTRPPRLPRPRPRPTEAPRP | 0.0502 |
| RRIRQRPPRLPRPRPRPCEFPRP | -0.311 |
| RRIRYRPPRLPRPRPRPACWPRP | 0.47 |
| RRIRHRPPRLPRPRPRPVYPPRP | -0.529 |
| RRIRCRPPRLPRPRPRPKFCPRP | -0.0358 |
| RRIRERPPRLPRPRPRPMQGPRP | -0.0783 |
| RRIRRRPPRLPRPRPRPECTPRP | 0.517 |
| RRIRKRPPRLPRPRPRPSRRPRP | 0.337 |
| RRIRWRPPRLPRPRPRPEICPRP | 0.127 |
| RRIRRRPPRLPRPRPRPMLWPRP | -0.0161 |
| RRIRFRPPRLPRPRPRPSSPPRP | -0.284 |
| RRIRRRPPRLPRPRPRPHNWPRP | -0.131 |
| RRIRLRPPRLPRPRPRPIIGPRP | -0.0425 |
| RRIRSRPPRLPRPRPRPACMPRP | 0.159 |
| RRIRRRPPRLPRPRPRPEQGPRP | 0.0344 |
| RRIRWRPPRLPRPRPRPTREPRP | 0.241 |
| RRIRDRPPRLPRPRPRPETGPRP | -0.0106 |
| RRIRERPPRLPRPRPRPRYKPRP | -0.0357 |
| RRIRTRPPRLPRPRPRPRVWPRP | 0.382 |
| RRIRWRPPRLPRPRPRPSIVPRP | -0.00221 |
| RRIRKRPPRLPRPRPRPKQGPRP | 0.121 |
| RRIRYRPPRLPRPRPRPPYPPRP | -0.257 |

| Sequence | shrunken log2 fold change |
| --- | --- |
| RRIRFRPPRLPRPRPRPYRLPRP | 0.0227 |
| RRIRRRPPRLPRPRPRPDTIPRP | -0.15 |
| RRIRSRPPRLPRPRPRPYQYPRP | -1.11 |
| RRIRHRPPRLPRPRPRPKRKPRP | 0.0863 |
| RRIRKRPPRLPRPRPRPYITPRP | -0.548 |
| RRIRLRPPRLPRPRPRPRDCPRP | -0.0082 |
| RRIRCRPPRLPRPRPRPNQEPRP | -0.0562 |
| RRIRNRPPRLPRPRPRPRGLPRP | 0.342 |
| RRIRVRPPRLPRPRPRPPSLPRP | 1.99 |
| RRIRSRPPRLPRPRPRPHSCPRP | -0.0203 |
| RRIRNRPPRLPRPRPRPKGSPRP | -0.0293 |
| RRIRCRPPRLPRPRPRPEGGPRP | 0.477 |
| RRIRMRPPRLPRPRPRPCLKPRP | 0.12 |
| RRIRYRPPRLPRPRPRPYWIPRP | -0.222 |
| RRIRWRPPRLPRPRPRPKNTPRP | -0.127 |
| RRIRVRPPRLPRPRPRPGWQPRP | 0.545 |
| RRIRTRPPRLPRPRPRPKPSPRP | 0.335 |
| RRIRNRPPRLPRPRPRPTSMPRP | 0.0812 |
| RRIRYRPPRLPRPRPRPAGTPRP | -0.0595 |
| RRIRKRPPRLPRPRPRPQIQPRP | 0.0528 |
| RRIRIRPPRLPRPRPRPCLCPRP | 2.05 |
| RRIRHRPPRLPRPRPRPRWAPRP | 0.315 |

| Sequence | shrunken log2 fold change |
| --- | --- |
| RRIRIRPPRLPRPRPRPCNTPRP | -0.0252 |
| RRIRWRPPRLPRPRPRPPKEPRP | 0.433 |
| RRIRLRPPRLPRPRPRPMYLPRP | 0.0092 |
| RRIRPRPPRLPRPRPRPPWAPRP | 1.32 |
| RRIRARPPRLPRPRPRPKRHPRP | 0.511 |
| RRIRIRPPRLPRPRPRPRWVPRP | 0.171 |
| RRIRHRPPRLPRPRPRPSGYPRP | -0.0698 |
| RRIRKRPPRLPRPRPRPGSVPRP | 0.162 |
| RRIRERPPRLPRPRPRPHEGPRP | 0.127 |
| RRIRSRPPRLPRPRPRPEMQPRP | 0.0419 |
| RRIRGRPPRLPRPRPRPIVSPRP | 0.158 |
| RRIRSRPPRLPRPRPRPGPQPRP | 0.885 |
| RRIRIRPPRLPRPRPRPSFDPRP | -0.442 |
| RRIRLRPPRLPRPRPRPKGGPRP | 0.01 |
| RRIRQRPPRLPRPRPRPRMDPRP | -0.0734 |
| RRIRMRPPRLPRPRPRPLEIPRP | 0.103 |
| RRIRHRPPRLPRPRPRPPSFPRP | -0.234 |
| RRIRDRPPRLPRPRPRPWFYPRP | -0.0139 |
| RRIRSRPPRLPRPRPRPVVLPRP | 0.124 |
| RRIRKRPPRLPRPRPRPDQYPRP | 0.0833 |
| RRIRIRPPRLPRPRPRPLMTPRP | -0.233 |
| RRIRHRPPRLPRPRPRPEMLPRP | -0.32 |

| Sequence | shrunken log2 fold change |
| --- | --- |
| RRIRRRPPRLPRPRPRPMPHPRP | -0.124 |
| RRIRARPPRLPRPRPRPDVGPRP | 0.0285 |
| RRIRCRPPRLPRPRPRPDKPPRP | 0.0422 |
| RRIRDRPPRLPRPRPRPIDMPRP | -0.185 |
| RRIRCRPPRLPRPRPRPLTWPRP | -0.16 |
| RRIRYRPPRLPRPRPRPSYVPRP | -1.29 |
| RRIRSRPPRLPRPRPRPILWPRP | -0.0848 |
| RRIRSRPPRLPRPRPRPKIPPRP | 1.16 |
| RRIRMRPPRLPRPRPRPNDKPRP | 0.145 |
| RRIRQRPPRLPRPRPRPTLNPRP | 0.0729 |
| RRIRVRPPRLPRPRPRPTYPPRP | -0.194 |
| RRIRIRPPRLPRPRPRPLWTPRP | -0.339 |
| RRIRKRPPRLPRPRPRPASFPRP | 0.559 |
| RRIRTRPPRLPRPRPRPNAQPRP | 0.5 |
| RRIRLRPPRLPRPRPRPAADPRP | 0.832 |
| RRIRCRPPRLPRPRPRPCFEPRP | -0.00928 |
| RRIRWRPPRLPRPRPRPFNKPRP | -0.441 |
| RRIRKRPPRLPRPRPRPCEEPRP | 0.56 |
| RRIRKRPPRLPRPRPRPWQSPRP | 0.0203 |
| RRIRMRPPRLPRPRPRPFNLPRP | -0.16 |
| RRIRFRPPRLPRPRPRPRQNPRP | 0.353 |
| RRIRQRPPRLPRPRPRPDVEPRP | -0.0335 |

| Sequence | shrunken log2 fold change |
| --- | --- |
| RRIRVRPPRLPRPRPRPNQLPRP | -0.188 |
| RRIRHRPPRLPRPRPRPFHWPRP | -0.0742 |
| RRIRHRPPRLPRPRPRPHVSPRP | -0.0122 |
| RRIRWRPPRLPRPRPRPRQMPRP | 0.0196 |
| RRIRSRPPRLPRPRPRPVARPRP | 0.148 |
| RRIRPRPPRLPRPRPRPHIEPRP | -0.646 |
| RRIRHRPPRLPRPRPRPNGCPRP | -0.0302 |
| RRIRVRPPRLPRPRPRPKLGPRP | 0.173 |
| RRIRPRPPRLPRPRPRPCTEPRP | 0.0737 |
| RRIRERPPRLPRPRPRPLEVPRP | -0.166 |
| RRIRLRPPRLPRPRPRPKHQPRP | 0.125 |
| RRIRQRPPRLPRPRPRPVFDPRP | -0.446 |
| RRIRCRPPRLPRPRPRPWMRPRP | 0.19 |
| RRIRMRPPRLPRPRPRPKEDPRP | 1.82 |
| RRIRHRPPRLPRPRPRPEQAPRP | -0.0477 |
| RRIRVRPPRLPRPRPRPVFRPRP | 0.189 |
| RRIRHRPPRLPRPRPRPQWVPRP | 0.0322 |
| RRIRVRPPRLPRPRPRPNHVPRP | -0.3 |
| RRIRYRPPRLPRPRPRPDRDPRP | -0.109 |
| RRIRWRPPRLPRPRPRPMDQPRP | -0.131 |
| RRIRPRPPRLPRPRPRPIMFPRP | -0.37 |
